The text below walks through data of patent publication US20240209086A1 (PETMEDIX, published 2024).

The target in test [1] is T1, canine CD3εδ-Fc (heterodimer of canine CD3ε-hIgG4PE-knob and canine CD3δ-hIgG4PE-hole) (canine).
T1 construct: also called CD3εδ-Fc fusion protein; copies: 1 + 1
In words: SPR Biacore 8K, single cycle, CD3εδ-Fc amine-coupled on CM5, antibody at 16.5, 33 and 66 nM. Here is the method:
Candidates CD3 bispecific antibodies were also screened for their ability to bind canine CD3εδ-Fc using surface plasmon resonance (SPR) using a Biacore 8K (Cytiva). Canine CD3εδ-Fc was covalently bound by amine coupling to the surface of a CM5 chip (Cytiva). CHO cell supernatant was diluted to 66, 33 and 16.5 nM in HBS-EP+ buffer and run on the chip single cycle kinetic protocol. Data was analysed using the dedicated software (Biacore Insight Evaluation Software).

Test [2] concerns the target T2, canine CD20 on cells (HEK293, MDCK II, CLBL-1 or native B cells) (canine, UniProt Q3C2E2 1-297).
T2 construct: also called dCD20; cCD20
T2 chain: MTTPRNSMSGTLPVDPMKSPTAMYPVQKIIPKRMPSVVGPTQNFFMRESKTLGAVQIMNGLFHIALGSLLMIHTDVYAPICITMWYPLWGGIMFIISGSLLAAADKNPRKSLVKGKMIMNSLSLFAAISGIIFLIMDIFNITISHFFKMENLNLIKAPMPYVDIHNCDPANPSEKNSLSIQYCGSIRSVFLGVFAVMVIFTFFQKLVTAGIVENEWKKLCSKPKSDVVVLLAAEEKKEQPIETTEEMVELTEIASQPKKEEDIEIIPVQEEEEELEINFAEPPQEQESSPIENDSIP
In words: flow cytometry, canine CD20 HEK293 cells, FITC anti-canine IgG. Here is the method: (§1) A CD20 binding screen was performed on candidate proteins produced from the canine CD20 immunisation as described in Examples 2 and 3. CHO cells supernatants containing candidate antibodies were diluted to 10 μg/ml in FACS buffer (PBS containing 3% FBS) and screened for their ability to bind canine CD20 expressed on cell surface. In brief, 1-2×10⁵ canine CD20-expressing HEK cells were incubated with candidate mAbs for one hour at 4° C., at a fixed concentration of 10 μg/ml followed by incubation with 5 μg/ml of FITC-conjugated anti-canine IgG secondary antibody (Bethyl Laboratories) for 1 hour at 4° C. Cells incubated with anti-canine IgG FITC secondary antibody and without primary anti-canine CD20 antibody, or with isotype control primary antibody, were used as negative controls. The data were acquired on either a Beckman Coulter CytoFLEX or a BD Accuri C6 Plus flow cytometer and analysed using FlowJo software.
A general note: A flow cytometer gives signals particle by particle.

The target in test [3] is T2, canine CD20 on cells (HEK293, MDCK II, …). Nature of the test: flow cytometry, canine CD20-expressing HEK cells, 10 µg/ml. Here is the method: as §1

T1 sequence (chain, as listed by the source mutant limits assumed): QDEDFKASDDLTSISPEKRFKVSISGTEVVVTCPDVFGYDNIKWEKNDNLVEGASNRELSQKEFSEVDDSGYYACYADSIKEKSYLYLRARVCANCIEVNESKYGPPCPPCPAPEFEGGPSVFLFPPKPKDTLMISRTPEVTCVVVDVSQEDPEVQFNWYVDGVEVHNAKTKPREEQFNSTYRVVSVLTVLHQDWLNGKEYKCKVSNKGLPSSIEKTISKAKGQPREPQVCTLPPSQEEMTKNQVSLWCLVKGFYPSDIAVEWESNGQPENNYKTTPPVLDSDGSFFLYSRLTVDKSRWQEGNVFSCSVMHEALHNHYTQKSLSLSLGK

B1: PMX160 in bispecific format (canine CD3 arm PMX160 x Rituximab arm, human IgG4PE knob-in-hole) (bispecific antibody)
heavy 1: EVQMVESGGDLVKPGGSLRFSCVASGFTFSSYHMSWVRQAPGKGLQWVAYINSGGSRTSYADAVKGRFTISRDNAKNTLYLQMNSLRAEDTAVYYCASGRSPPPLGSFDYGLDYWGHGTSLFVSSASTKGPSVFPLAPCSRSTSESTAALGCLVKDYFPEPVTVSWNSGALTSGVHTFPAVLQSSGLYSLSSVVTVPSSSLGTKTYTCNVDHKPSNTKVDKRVESKYGPPCPPCPAPEFEGGPSVFLFPPKPKDTLMISRTPEVTCVVVDVSQEDPEVQFNWYVDGVEVHNAKTKPREEQFNSTYRVVSVLTVLHQDWLNGKEYKCKVSNKGLPSSIEKTISKAKGQPREPQVYTLPPSQCEMTKNQVSLSCAVKGFYPSDIAVEWESNGQPENNYKTTPPVLDSDGSFFLVSRLTVDKSRWQEGNVFSCSVMHEALHNRFTQKSLSLSLGK
light 1: SYVLTQLPSKNVTLKQPAHITCGGDNIGSKSVHWYQQKLGQAPVLIIYYDSSRPTGIPERFSGANSGNTATLTISGALAEDEADYYCQVWDSSAKAWVFGEGTQLTVLRTVAAPSVFIFPPSDEQLKSGTASVVCLLNNFYPREAKVQWKVDNALQSGNSQESVTEQDSKDSTYSLSSTLTLSKADYEKHKVYACEVTHQGLSSPVTKSFNRGEC
heavy 2: not shown
light 2: QIVLSQSPAILSASPGEKVTMTCRASSSVSYIHWFQQKPGSSPKPWIYATSNLASGVPVRFSGSGSGTSYSLTISRVEAEDAATYYCQQWTSNPPTFGGGTKLEIKRTVAAPSVFIFPPSDEQLKSGTASVVCLLNNFYPREAKVQWKVDNALQSGNSQESVTEQDSKDSTYSLSSTLTLSKADYEKHKVYACEVTHQGLSSPVTKSFNRGEC
Regarding B1, in test [1], the binding result was “binds”.

B2: PMX162 in bispecific format (canine CD3 arm PMX162 x Rituximab arm, human IgG4PE knob-in-hole) (bispecific antibody)
heavy 1: EMQLVESGGDLVKPGGSLRLSCVASGFTFSTYHMSWVRQAPGKGLQWVAYSNSGGTRTYYADAVKGRFTISRDNVKNTLYLQMNSLRAEDTAVYYCASEGSGGGRYGFKDYGMDYWGHGTSLFVSTASTKGPSVFPLAPCSRSTSESTAALGCLVKDYFPEPVTVSWNSGALTSGVHTFPAVLQSSGLYSLSSVVTVPSSSLGTKTYTCNVDHKPSNTKVDKRVESKYGPPCPPCPAPEFEGGPSVFLFPPKPKDTLMISRTPEVTCVVVDVSQEDPEVQFNWYVDGVEVHNAKTKPREEQFNSTYRVVSVLTVLHQDWLNGKEYKCKVSNKGLPSSIEKTISKAKGQPREPQVYTLPPSQCEMTKNQVSLSCAVKGFYPSDIAVEWESNGQPENNYKTTPPVLDSDGSFFLVSRLTVDKSRWQEGNVFSCSVMHEALHNRFTQKSLSLSLGK
light 1: SYVLTQLPSKNVTLKQPAHITCGGDNIGSKSVHWYQQKLGQAPVLIIYYDSSRPTGIPERFSGANSGNTATLTISGALAEDEADYYCQVWDSSAKAWVFGEGTQLTVLRTVAAPSVFIFPPSDEQLKSGTASVVCLLNNFYPREAKVQWKVDNALQSGNSQESVTEQDSKDSTYSLSSTLTLSKADYEKHKVYACEVTHQGLSSPVTKSFNRGEC
heavy 2: not shown
light 2: QIVLSQSPAILSASPGEKVTMTCRASSSVSYIHWFQQKPGSSPKPWIYATSNLASGVPVRFSGSGSGTSYSLTISRVEAEDAATYYCQQWTSNPPTFGGGTKLEIKRTVAAPSVFIFPPSDEQLKSGTASVVCLLNNFYPREAKVQWKVDNALQSGNSQESVTEQDSKDSTYSLSSTLTLSKADYEKHKVYACEVTHQGLSSPVTKSFNRGEC
With B2, in test [1], the binding result is “binds”.

B3: PMX251 (monospecific anti-canine CD20, canine IgG-B, lambda C5) (antibody, V domains shown)
VH: EVQLVESGGDLVKPGGSLRLSCVASGFTFSSYHMSWVRQAPGKGLQWVAYINSGGSSTSYADAVKGRFTISRDNAKNTLYLQMNSLRAEDTAVYYCASFDYWGQGTLVTVSS
VL: SYVLTQLPSKNVTLKQPAHITCGGDNIGSKSVHWYQQKLGQAPVLIIYYDSSRPTGIPERFSGANSGNTATLTISGALAEDEADYYCQVWDSSANVFGGGTHLTVLG
For the molecule B3, the binding result in test [2] is given as “no binding (tested: 10 µg/ml)”.

B4: PMX250 (monospecific anti-canine CD20, canine IgG-B, lambda C5) (antibody, V domains shown)
VH: EVQLVESGGDLVKPGGSLRLSCVASGFTFSSYHMSWVRQAPGKGLQWVAYINSGGSSTSYADAVKGRFTISRDNAKNTLYLQMTSLRAEDTAVYYCTSFDYWGQGTLVTVSS
VL: SYVLTQLPSKNVTLKQPAHITCGGDNIGSKSVHWYQQKLGQAPVLIIYYDSSRPTGIPERFSGANSGNTATLTISGALAEDEADYYCQVWDSSANVFGGGTHLTVLG
As for B4, in test [2], the binding result is on record as “no binding (tested: 10 µg/ml)”.

B5: PMX244 (monospecific anti-canine CD20, canine IgG-B, lambda C5) (antibody, V domains shown)
VH: EVQLVESGGDLVKPGGSLRLSCVASGFTFSRYHMSWVRQAPGKGLQWVAYINSGGSDSDYADAVKGRFTISRDNAKNTLYLQMNSLRAEDTAVYYCTSLDYWGQGTLVTVSS
VL: SYVLTQLPSKNVTLKQPAHITCGGDNIGSKSVHWYQQKLGQAPILIIYYDRRRPTGIPERFSGANSGNTATLTISGALAEDEADYYCQVWDRSGNVFGGGTHLTVLG
Regarding B5, in test [3], the binding result was “binds”.
